# Target: mare1_human MAPRE1 (UniProt Q15691)
# Sequence (Q15691 whole entry): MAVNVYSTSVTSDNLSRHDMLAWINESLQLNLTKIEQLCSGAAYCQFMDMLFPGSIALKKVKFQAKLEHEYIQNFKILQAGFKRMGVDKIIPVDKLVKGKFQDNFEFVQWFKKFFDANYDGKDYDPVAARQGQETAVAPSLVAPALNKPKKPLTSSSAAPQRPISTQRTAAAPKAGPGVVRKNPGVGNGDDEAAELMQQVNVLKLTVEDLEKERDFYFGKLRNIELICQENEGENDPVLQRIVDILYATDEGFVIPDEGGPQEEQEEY
row,effect of a mutation on the interaction,Substance
1,decreasing interaction strength,"Desmoplakin (Homo sapiens), P15924-2 N458Y"
2,decreasing interaction strength,"Desmoplakin (Homo sapiens), P15924-2 I533T"

# From IntAct's records for PubMed 25225338
